# Data as given in the domain aggregation screens of Martell et al. (2025).
# Assay: soluble fraction after stress (log2 fold change); higher = more stays soluble; pooled small domains, quantitative proteomics
# Conditions: stress: 50 degC
# Procedure, shortened: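 After stress at 50°C, the amount of each protein still soluble was measured. This was done on pooled custom libraries of small protein domains, using high-throughput quantitative proteomics. The figure given is a base-two log fold change and stands for aggregation propensity, with higher values meaning more protein stays in solution.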
row,Sequence,soluble fraction (log2)
1,HMTVKKLIINEDNSGRRIDNYLLSIFNSVPRSKIYNIIRKGEVRVNSSRIKPSYRLEEGDQVRIPPNLDYT,-1.04
2,HMTVKRNILQELLKTAFKHPEDFRPSKTFYGETGIGQKRFWALYYGHKAVTQKEYYAVADYLG,-0.0349
3,HMTVLDYNENVLSKVMNAAEINDSDKEAFIAFAKDYNSDDNLYLKKEELETAAGAWNARNVE,0.358
4,HMTVLTDEIKVILISYIKENDFKKKHGNRKMMMTAQDMYDELVEKGYKISYPTVTQYVQKYRENETT,-1.27
5,HMTVMTGSQRRKKILELMRDAKEPLSGGALGKETGVSRHVVVQDIALLRTQGYPIVATARGYIINE,-0.212
6,HMTVRLSVSADGKFFWNESQVSEEELFPRLQAEAAKEPQPDLHIRGDKNVRYEFVAQAMAAAQRAGVRKI,-0.404
7,HMTVSADQTAADAVIKLINAIGTVSENSGSAISAARSGYDALTDTQKKLVTNYNKLTQAEQVFSSLPS,0.203
8,HMTVSGNIAGDYKDYLPQKTDVINGMTVTYRMVDDAVYLASWKHAGQNHVFLFNDPVSVERAREMI,-0.577
9,HMTVSIDSLFDKFEDLQEQGLGDKTEEGQELRGLIRAFIEQEHLSVRITRSTSNQELLDMIEEAMQ,-1.45
10,HMTVSRRYTENEMETALKAYLATHNFISRRDMQQEFALTIYSARKWLNHFVDVGLIERIGLKNAPIYKL,-0.4
11,HMTVTKYGKKILEIVSSSRSHMTAEEIFDALRQTYPTVVLATVYNNLNRLWQDDLIRKVSVEGMPDRYD,-1.22
12,HMTVVPNIVNQPEAAGTNLLISSNLKPGNRAVQYSDTVKAGDIISQSPEPGAQATLGGKVDYVISQGPAPT,0.165
13,HMTWIAEIELRLMGNGAVTGAKIVKSTDLKDVDAAIYRAALEASPYPAPESGIGGRFTIKLKY,0.198
14,HMTYLIKFDENGRRSDTYVAEEKTQEQVTELLEKGFVLITEEDYQLLVGNVDGKEYIRNADGTYSEYT,-0.0279
15,HMTYMWTTDGVNLRSEPNTDSAVVTVLGVGTQVRMIGEEDGWVKVSFNDQEGYIRADFLTTE,-0.0926
16,HMTYSAFITARNKRIAEEYSVLLDSLNISNNVIYRLGSWVVEVNVSDHSRAIDEIYSYERSGRIDKV,-0.498
17,HMTYYEGYYRKNQKGFGFVIVDGRDEDIYIDAKNMNGALNNDLVVVEELKGQNGKKTEGRVVKVLKKE,-0.185
18,HMVADLSGVGDKDIIVDQFIYHEVLPKETIYSIVKSFNVTSEDLNKNNPFLRANGLRIGQVIRIPLKI,-1.08
19,HMVAEPTYGRTTDVLNIRSGPSTDDERIGQLSRGAVVTILEEKDGWYRLQRGYISADYVTQISAEEASNS,-0.221
20,HMVAEPVYGKVTEGPLNVRSAPSTDSEKVDSFSTGKVLTILETLDGWYKVEEGYVSADYVTIIDAAEAASS,0.00408
21,HMVAGHLSEKKGYYYAVLNYKDYTGKRKSKWVSTGLPVKGNKRRAEKILADIKRDFVPEEPKR,-0.596
22,HMVAGQDPVKRQQILDGAKRVFLGVGFDAASMNDITREAGVSKGTIYVYFGSKEELFGALIDR,-0.663
23,HMVAMLDASYRGVMQTISTLLAQGNTERAYDEAVNARGQMSKQQWNNLANLIWERTGQKIDSGVSYK,0.139
24,HMVDEAQSLERNVLLTVLSRIGRDSRVVLTHDIAQRDNLRVGRHDGVVAVVDRLKGHPLFAHVTL,0.012
25,HMVDERMVTYINSLDKGNTPFLNELEKEALANYVPIIRREMQSFLKVLLQIKAPLRILEVGTAVGFSTILM,0.199

row,Sequence,soluble fraction (log2)
1,HMVDGAHKQQAAVQALTPALKVLAAAPEGKKGQAIQALRAVLKQHGRWLDDATAQQVHEQLLAAGDAQGWQ,0.297
2,HMVDIGQSIRVELIREGKDSHQAVGYLRDGSMVVVNHGRKLIGSTVEVEITSIVPSSAGKVIFAEYLE,-0.378
3,HMVDIQTGQKVRIHTSQFAGKIGNITALNVKSAELPNGIRTATASILMQSNENVMLPVSNFDIIE,0.0434
4,HMVDIVLDILKIVAEKQPGNQFSQSILMQYQERGGLSKKQLEGLYGKAKRIPEIPQNKLATLEAIILR,-1.41
5,HMVDKNDLTAIDGIGPFLEKKLNDVGVFTYADIAGWDAAKIEEITQQISFFEGRIEKDDWVGQAQKLIDDQ,-0.157
6,HMVDKSYIHNQQVASDTWTVQHNLGKYPAVSVADTGNNEVYGDVRHINENTVELKFSHPFSGVAFF,0.281
7,HMVDKTMYDRYAVDDYVRVIDGPLVGTEGRIIELDRETGNVKIEAVFFGRVTTADINFALIEKVD,0.0531
8,HMVDLDIENYELEDILNLFRLQYNFVEADLKRAYRMALKLHPDKSGLDGEYFRFYMKAYKIVENIFNFRNR,-1.78
9,HMVDSVIGSVGRVTVDIDNVEALGQVKLGGMEWSARSTSGDPIPAGTEVRVDRVEGVKVFVTPV,-0.00113
10,HMVDVEMLTTVSDHIEAKLLQGILENHGIPSYSVDEESGEYMRVYMGYSIFGEKIYVRASDLLAAQGYL,-2.25
11,HMVDWTFPVLVKDVVMMGRYGHMGFLRIPGKKDFESVDNALAKVGMVEYAKQQIGELSGGQR,-0.0772
12,HMVDYSMEDSVWNNKKEHVNEWFDANPEHEGRRVIVDGLFAIGDAQPDLRKRHWSSISVVFADLDNSPIG,-0.356
13,HMVEDPADNQKAADAVIKKISEIGEVTESSENLIKEARASYDALTDNQKELVTNYDVLVQAEAQLENIKD,-0.0306
14,HMVEEVDYGTFMRMIEEKNIGKVEVRAGEIVFTDKDEKQIYKTGAMEDATLTQRLYESGAEFSKDV,0.0146
15,HMVEGVSLVEIYVDENSKYNGKLLSEIPKKENTLVIMIQRGEQVIIPHGNIRLESGDMLVVSKTEI,-0.649
16,HMVEKNALSEEIEGYVNKYGKDRSSLMPVLQAIQRKHSYINDFAQQEVARLLDIHPVEVFSVISFYSFLH,-1.79
17,HMVEKRLFPQISDAGKRLDLFLAGALAISRTMVVKIIKDGGVLVNGKAAKASYRLAGDEELLVSYEEP,0.395
18,HMVEMPEVGVKVRIEVESHNGSTNFEGIVLHPASKGHLTLKLINGYNASYLIEEIRNLEIIDSS,-0.271
19,HMVENATPEEREALNDIAMEAMGMVKDGKPTSAREFVQSQNLDNDQKILLWSLLDAPTRSALKTAEK,-0.133
20,HMVEPIKAPMPGMVLKILVEPGQQIEKGQGVLILEAMKMENVLKSSAAATVKSIKVSEKSAVEKGAILVEL,-0.109
21,HMVEQVEISILPGEYSDTISQKLLDAGLIDDKAAFSKYINDTNVDNLIQPGTFTVPKGASYEEVAKILT,0.212
22,HMVERRVRFTVAPGNAGLRLDLFLTAREIGLSRTQVGRAVDEGQIQVNGRPGRAGRKLKTGDVVAIVLPA,-0.783
23,HMVESLTDRELQILSLAAKGYTNKAIAVQLGISDRTVQNHLANTFQKLNAESRTEAVMRAVSLGLISA,-0.213
24,HMVETVQVVGAGQDIMPGSRINYSSLHYITVPRSYFHEDMFAKNNLVVGRIARAYVAKGEPLLAASLMPK,-2.54
25,HMVEVPYSEFLKELDAGNVKDVYVSNGESQIQFTKKDQKQWNLSYKTGPIPGDDLVKRLQNADVENFT,0.0879
